Data from paper PMC5683418 (Molecular cell, 2017).

Target: T1, highly purified Flag-HA-tagged NRF2 (human, UniProt Q16236 1-605)
T1 sequence (looked up): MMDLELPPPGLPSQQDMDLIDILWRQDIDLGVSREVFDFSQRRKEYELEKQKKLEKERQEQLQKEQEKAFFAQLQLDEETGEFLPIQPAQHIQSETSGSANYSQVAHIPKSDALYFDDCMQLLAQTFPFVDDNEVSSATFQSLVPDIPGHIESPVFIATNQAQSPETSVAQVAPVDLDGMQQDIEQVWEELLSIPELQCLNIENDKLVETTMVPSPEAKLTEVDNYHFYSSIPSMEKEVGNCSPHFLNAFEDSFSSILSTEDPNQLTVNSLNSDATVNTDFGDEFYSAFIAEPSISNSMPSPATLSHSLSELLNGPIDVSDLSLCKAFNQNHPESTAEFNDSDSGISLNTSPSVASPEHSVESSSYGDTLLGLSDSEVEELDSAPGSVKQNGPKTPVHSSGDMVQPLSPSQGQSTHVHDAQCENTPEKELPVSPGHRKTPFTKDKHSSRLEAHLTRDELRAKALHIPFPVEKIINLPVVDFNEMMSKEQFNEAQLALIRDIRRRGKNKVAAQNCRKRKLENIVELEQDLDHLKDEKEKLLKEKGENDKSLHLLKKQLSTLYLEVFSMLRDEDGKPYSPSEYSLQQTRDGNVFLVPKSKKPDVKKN
Test: pull-down

B1: GST-ARF (1–64) (domain or fragment, UniProt Q8N726 1-64, looked up)
chain: MVRRFLVTLRIRRACGPPRVRVFVVHIPRLTGEWAAPGAPAAVALVLMLLRSQRLGQQPLPRRP
- binding result: binds
